Experimental data as given in patent US7407776, “Engineered zinc finger proteins for regulation of gene expression” (Sangamo Biosciences, Inc.).

Molecular target: HA-ZFP-5475-KOX1 (Artificial)
Assay: ChIP with anti-HA in HEK293 cells, relative to GAPDH control; GFP-KOX and non-specific ZFP TF gave no significant enrichment
Method: FIG. 2A is a graph depicting repression of CHK2 expression by ZFP-5475 in cultured cells. Black bars show mRNA levels upon administration of 250 ng of plasmid. Gray bars shown mRNA levels upon administration of 62.5 ng of plasmid and the white bars show mRNA levels upon administration of 15 ng of plasmid. HEK293 cells transfected with the plasmids indicated were assayed for CHK2 mRNA by quantitative RT-PCR (TaqMan) after 72 hrs. The CHK2 mRNA levels were normalized relative to an internal control of GAPDH mRNA, and are expressed as this ratio. Charts represent data from a minimum of two independent experiments, with means and standard deviations shown. Transfection efficiency was assessed in each independent experiment via the use of a GFP expression plasmid control, in all experiments an apparent efficiency of 80-90% GFP positive cells was observed. FIG. 2B is a graph depicting binding of ZFP-5475 to its intended target site within the CHK2 promoter in vivo. […] Enrichment was quantified by RT-PCR Results are expressed as the fold-increase of the ratio to the GAPDH control relative to the results for non-transfected cells, the value of which is arbitrarily set to 1. The same samples were analyzed with primers specific for the p16 locus as a second internal control (open bars). […]

B1: CHK2 promoter ZFP-5475 target site (dsDNA)
DNA 1: ACCCGGGTTCCCCTCGGG
DNA 2: CCCGAGGGGAACCCGGGT
**Q.** Which binding signal does the source give for B1 here?
**A.** ~65 fold enrichment
